Assay results published in the supplement of paper PMC9170038.

Test system: MS2 coat protein
Assay: apparent KD of MS2 coat protein; designed switch direction (-1 OFF switch, 1 ON switch): -1; higher = weaker reporter binding
Procedure, shortened: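 Each step of the titration lasted 0.8–1.5 h at the lowest concentration and 10–20 min at the highest. The protein, SNAP-549-labelled MS2 coat protein, went from 0.7 or 1.5 nM doubling to 3 µM over RNA switches transcribed on Illumina chips by stalled E. coli RNA polymerase. Normalised cluster fluorescence was curve-fitted, and the per-design median over clusters is given as apparent KD.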

[1] = input ligand: microRNA oligo, concentration not stated
[2] = Eterna round: R95, input ligand: FMN 200 uM
[3] = Eterna round: R95, input ligand: microRNA oligo, concentration not stated
[4] = Eterna round: R95, input ligand: none

Sequence: UUCCUCUCUUCUCUGUCUCACAUGAGGAUCACCCAUGUAACAUAGGAUAUGCUUGGUAUUUAAAUGCAGAAGGAUGUUAGUAUU [JR_ExcNG3_Sub082] (Eterna round: R96, puzzle: Exclusion NG 3)
- apparent KD of MS2 coat protein (input ligand: FMN 200 uM): 82.9 nM
- apparent KD of MS2 coat protein [1]: 22.4 nM
- apparent KD of MS2 coat protein (input ligand: none): 30.2 nM

Sequence: AAUAACUCAGUGAGGAUAUUUGCGGGUGUUUUCGCAAAGAAGGCACAUGAGGAUCACCCAUGUCAGAGGAGCUA [Eternabot (Original) Solution 24] (Eterna round: R97, puzzle: Brourd's mod of Exclusion 4)
- apparent KD of MS2 coat protein (input ligand: FMN 200 uM): 214 nM
- apparent KD of MS2 coat protein (input ligand: none): 120 nM

Sequence: GGAUCUACUGAGGAUAUUACAUCACCCGAUUGAUAAGAAGGCAGAACAUGAGGAUCACCCAUGUGGGUAGCCAA [Polaris] (Eterna round: R97, puzzle: Exclusion 6)
- apparent KD of MS2 coat protein (input ligand: FMN 200 uM): 36.9 nM
- apparent KD of MS2 coat protein (input ligand: none): 21 nM

Sequence: GCGCCAUCGUGAGAUGGCGUAUAUACAUGAGGAUCACCCAUGUAGGAUAUCGAUUGCUUUGCAGUCGAGAAGGGCGUGAUAAUU [JL ENG3 3.69] (Eterna round: R96, puzzle: Exclusion NG 3)
- apparent KD of MS2 coat protein (input ligand: FMN 200 uM): 109 nM
- apparent KD of MS2 coat protein [1]: 60.5 nM
- apparent KD of MS2 coat protein (input ligand: none): 82 nM

Sequence: UUUAAUUUUUUUUUUUUACAAGCUUUUUGCUCGUCUUAUACAUGAGGAUCACCCAUGUGAGUGGAGGGUAAAUUAUC [JMF 88] (puzzle: Sensor v3, turn-off variant 2)
- apparent KD of MS2 coat protein [2]: 17.8 nM
- apparent KD of MS2 coat protein [3]: 45.8 nM
- apparent KD of MS2 coat protein [4]: 16.3 nM

Sequence: AAAUCGGUAGAGGAUAUUGUACAGGAAACGGUGCAAGAAGGUUGCACAUGAGGAUCACCCAUGUUAAAUUGCGA [EX6 #51] (Eterna round: R97, puzzle: Exclusion 6)
- apparent KD of MS2 coat protein (input ligand: FMN 200 uM): 39.4 nM
- apparent KD of MS2 coat protein (input ligand: none): 38.8 nM

Sequence: AGGCUGUCAGGAUAUCUGCGCCGCUGUACGCGGCGUUAUAAAGAGAAGGGACAUGAGGAUCACCCAUGUCCUCA [EX4 B.14] (Eterna round: R97, puzzle: Exclusion 4)
- apparent KD of MS2 coat protein (input ligand: FMN 200 uM): 109 nM
- apparent KD of MS2 coat protein (input ligand: none): 19.5 nM

Sequence: UUAACAUGCUGGUGAUCAUACAUGAGGAUCACCCAUGUAACAAGCUUUUUGUUCGUCUUAAUUUAAUUGAUUACUAG [Stov1/8-B1] (Eterna round: R97, puzzle: Sensor, turn-off variant 1)
- apparent KD of MS2 coat protein (input ligand: FMN 200 uM): 188 nM
- apparent KD of MS2 coat protein (input ligand: none): 248 nM

Sequence: UUCAGACAUGAGGAUCACCCAUGUGAGGAUAUGAUGCGAUCGUCGAAAGACGAUAGCAUCAGAAGGCACAUAUG [Fiskers Ex 1 - 17] (puzzle: Exclusion 1)
- apparent KD of MS2 coat protein [3]: 153 nM

Sequence: CGAUGCUCGAGUCCACAUGAGGAUCACCCAUGUCGAGUUAGCGAGGAUAUCGGAGACACAUAGUAUGAGAAGGCGCGAACCUGA [Ex NG3 #20] (Eterna round: R96, puzzle: Exclusion NG 3)
- apparent KD of MS2 coat protein (input ligand: FMN 200 uM): 10 nM
- apparent KD of MS2 coat protein [1]: 11.3 nM
- apparent KD of MS2 coat protein (input ligand: none): 13.6 nM

Sequence: AAUAAUAAGGAGGAUAUCGUAUCGGAAACGAUACGAGAAGGUCUAACAUGAGGAUCACCCAUGUUCCUCAAUAA [Fiskers Ex 6 - 1] (puzzle: Exclusion 6)
- apparent KD of MS2 coat protein [3]: 33.6 nM

Sequence: AGUUGUUGUUUCCGUUCUUACAUGAGGAUCACCCAUGUUUCUUGUCGUGCUCGCGUUGCUCGUCUGACUACCUGUUG [salish99_TOv1_r3_067] (puzzle: Sensor v3, turn-off variant 1)
- apparent KD of MS2 coat protein [2]: 52.5 nM
- apparent KD of MS2 coat protein [3]: 40.3 nM
- apparent KD of MS2 coat protein [4]: 68.1 nM

Sequence: GGUCUUCAAGUCAGGAUAUCGUCUAAUCGAUCUGGCGAGAAGGGACAUGAGGAUCACCCAUGUCGUCUCAUCAG [Ex4 #16] (Eterna round: R97, puzzle: Brourd's mod of Exclusion 4)
- apparent KD of MS2 coat protein (input ligand: FMN 200 uM): 22.7 nM
- apparent KD of MS2 coat protein (input ligand: none): 17.7 nM

Sequence: UUACGAUUGCUAGGAUAUCCACGAAUAGCUCCGGGAGAAGGAGCUCUCGUACAUGAGGAUCACCCAUGUCAGGGUGUCCAAUUU [Onraedin] (Eterna round: R96, puzzle: Exclusion NG 1)
- apparent KD of MS2 coat protein (input ligand: FMN 200 uM): 38.1 nM
- apparent KD of MS2 coat protein [1]: 21.4 nM
- apparent KD of MS2 coat protein (input ligand: none): 40.7 nM

Sequence: ACAUGUAUUGCAGGAUAUGGGACACAUGAGGAUCACCCAUGUGACUACAUGUAAUGCCACGGGUCUCAGAAGGGUAUGUACAUG [Ex NG2 #42] (Eterna round: R96, puzzle: Exclusion NG 2)
- apparent KD of MS2 coat protein (input ligand: FMN 200 uM): 81.5 nM
- apparent KD of MS2 coat protein [1]: 22.9 nM
- apparent KD of MS2 coat protein (input ligand: none): 31.3 nM

Sequence: GGACAGUCAGGAUAUACAUGAGGAUCACCCAUGUUGAGAUGUGAAAGGGCGGGAGUAGGUAGAAGGGACGAGAG [JR_Exclu3_Sub040] (puzzle: Exclusion 3)
- apparent KD of MS2 coat protein [3]: 23.2 nM

Sequence: UAAGUGUCAGGAUAUACAUGAGGAUCACCCAUGUGCCUCGCUACGGCCAGGCUCCCGUGUAGAAGGGAUCGUAA [Eternabot (Original) Solution 23] (Eterna round: R97, puzzle: Exclusion 3)
- apparent KD of MS2 coat protein (input ligand: FMN 200 uM): 110 nM
- apparent KD of MS2 coat protein (input ligand: none): 61.8 nM

Sequence: UGAUCUAGCGGAGGAUAUACAUGAGGAUCACCCAUGUAGGAUCCAUGACCGUAGUCGUGGAUCGUGUAGAAGGCCGCUAGAUCU [JL ENG2 3.70] (Eterna round: R96, puzzle: Exclusion NG 2)
- apparent KD of MS2 coat protein (input ligand: FMN 200 uM): 13 nM
- apparent KD of MS2 coat protein [1]: 8.14 nM
- apparent KD of MS2 coat protein (input ligand: none): 13.1 nM

Sequence: AACAUUCCAGAAAGGAAUGACAUGAGGAUCACCCAUGUAGGGAUCUAUGCUAAGUUGCUCGUCGCCGCUCCACAAAG [Eternabot (Original) Solution 5] (Eterna round: R97, puzzle: Sensor, turn-off variant 1)
- apparent KD of MS2 coat protein (input ligand: FMN 200 uM): 431 nM
- apparent KD of MS2 coat protein (input ligand: none): 362 nM

Sequence: AGUACUAACACGAGUGUGUUAGUACAAUAAGCUUGUGAAACAUGAGGAUCACCCAUGUCCUCAUAAGCUCGUCUUAU [salish99_TOv2_r3_073] (puzzle: Sensor v3, turn-off variant 2)
- apparent KD of MS2 coat protein [2]: 17.8 nM
- apparent KD of MS2 coat protein [3]: 516 nM
- apparent KD of MS2 coat protein [4]: 15.1 nM

Sequence: CAAUUCUGAGGAUAUCGAUUUUUGUACAUGAGGAUCACCCAUGUCCUUUUUAUUUAAUCCCGAGAAGGCAGUGUAU [JR_E5_Sub097] (puzzle: Exclusion 5)
- apparent KD of MS2 coat protein [3]: 23.8 nM

Sequence: AAUUUCGCGGCCCGAUGACUGCGUACUGACAGUGAGCUCACAUGAGGAUCACCCAUGUUUUUUGCUCGUAAAUCAGA [Quarat] (Eterna round: R96, puzzle: Sensor v2, turn-off variant 2)
- apparent KD of MS2 coat protein (input ligand: FMN 200 uM): 13.6 nM
- apparent KD of MS2 coat protein [1]: 12.3 nM
- apparent KD of MS2 coat protein (input ligand: none): 16.1 nM

Sequence: CUUCGUAUAGAGGAUAUAGGAUACUACGGUGUCCUAGAAGGCUGUACAUGAGGAUCACCCAUGUACUUCAGAUC [Exclusion 6 - B - 14:a] (puzzle: Exclusion 6)
- apparent KD of MS2 coat protein [3]: 11.5 nM

Sequence: ACACAGCGAGGAUAUACAUGAGGAUCACCCAUGUGGUGGCAGUUACGGUAGGACUAGUGUAGAAGGUGCAGUGG [EX3 #29] (Eterna round: R97, puzzle: Exclusion 3)
- apparent KD of MS2 coat protein (input ligand: FMN 200 uM): 485 nM
- apparent KD of MS2 coat protein (input ligand: none): 800 nM

Sequence: GUCAUCACACAUGGGAUCAACAUGAGGAUCACCCAUGUUGCCAAGCCGUUUGCACGUCUUAUCAUACGUUUUUCGAU [Mod-Jxj] (Eterna round: R97, puzzle: Sensor, turn-off variant 1)
- apparent KD of MS2 coat protein (input ligand: FMN 200 uM): 90.2 nM
- apparent KD of MS2 coat protein (input ligand: none): 99.8 nM

Sequence: GGUACUAACACGAUAGUGUUAGUACUAUAAGCUUGUGUUACAUGAGGAUCACCCAUGUCCUCAUAAGCUCGUCUUGU [Mat - Sensor v3 - Turn-off var 2 - D89] (puzzle: Sensor v3, turn-off variant 2)
- apparent KD of MS2 coat protein [2]: 49.8 nM
- apparent KD of MS2 coat protein [3]: 52.9 nM
- apparent KD of MS2 coat protein [4]: 44.8 nM

Sequence: AUGUGACAUGAGGAUCACCCAUGUGAGGAUAUCAUGCUUCGUAGUAAACUACGAAGUGUGAGAAGGCACAUAAC [Omei Ex1 E7] (Eterna round: R97, puzzle: Exclusion 1)
- apparent KD of MS2 coat protein (input ligand: FMN 200 uM): 357 nM
- apparent KD of MS2 coat protein (input ligand: none): 80.2 nM

Sequence: CAUGAUCUUCGGAUCAUGUACAUGAGGAUCACCCAUGUUACGAGCAGAUUUUCAUACAAGCUUUUUGCUCGUCUUAU [Sensor v3 - Turn-off variant 1 - 31] (puzzle: Sensor v3, turn-off variant 1)
- apparent KD of MS2 coat protein [2]: 27.6 nM
- apparent KD of MS2 coat protein [3]: 67.3 nM
- apparent KD of MS2 coat protein [4]: 28.7 nM

Sequence: CAGGAUAGAGGAUAUACAUAGAUACAGAUUCGUGUGAUCCUACAUGAGGAUCACCCAUGUAGAAGGCUAUCCUG [Fiskers Ex 2 - 23] (puzzle: Exclusion 2)
- apparent KD of MS2 coat protein [3]: 210 nM

Sequence: CCUCAGUAAGGAUAUCAGCUUAUAAGGUUGGUAAUGAGAGCUGAGAAGGUACAUGAGGAUCACCCAUGUUAGUU [JL Zatite mod 6] (puzzle: Exclusion 4)
- apparent KD of MS2 coat protein [3]: 26.7 nM

Sequence: AACUUCUGAGGAUAUACAUAGAUUUACAUGAGGAUCACCCAUGUUCCUCUAUGUAUAAAUGUAGAAGGCAGAAGAU [Mat - Exclusion 5 - JL Mod - D62] (Eterna round: R97, puzzle: Exclusion 5)
- apparent KD of MS2 coat protein (input ligand: FMN 200 uM): 129 nM
- apparent KD of MS2 coat protein (input ligand: none): 18.4 nM
